Source: the supplement of paper PMC10567573
± gives the standard deviation.

Test: protein stability index of a GFP-peptide fusion (GPS, HEK-293T) (PSI 1-6); higher = more stable
[1] = treatment: DMSO, c terminus: a fixed tail appended
[2] = treatment: MLN4924 1 uM, 8 h, c terminus: a fixed tail appended
[3] = treatment: DMSO, c terminus: native
[4] = treatment: MLN4924 1 uM, 8 h, c terminus: native
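Also: 24-mer peptide tiles fused after GFP, lentivirally expressed, FACS-sorted into six equal bins by GFP/DsRed ratio, decoded by Illumina sequencing, PSI is the read-weighted mean bin number.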

Row | Sequence | protein stability index [1] | protein stability index [2] | protein stability index [3] | protein stability index [4]
1 | YDYLRKLFTDLFDRKGYMFDYEYD [CSNK1G3] | 2.11 ± 0.76 | 2 ± 0.3 |  | 
2 | GKAYGWCSELIRHRRVHARKEPSH [ZNF232] | 3.23 ± 0.17 | 3.26 ± 0.38 |  | 
3 | SVGHNNLIPLANTGIVNHTHSRMG [CARM1] | 3.47 ± 0.32 | 3.66 ± 0.2 |  | 
4 | IGLWGLAVKGSLGSDLGGPLPTDP [TSPAN10] | 2.32 ± 0.27 | 2.39 ± 0.29 |  | 
5 | DGAISAHKPLLICSCEWMAAMFGG [RHOBTB1] | 2.25 ± 0.29 | 2.3 ± 0.15 |  | 
6 | TPTPVAAALDACSGNDPFAPSEGS [SNAP91] | 5.29 ± 0.32 | 5.47 ± 0.24 |  | 
7 | MIARCLLAVRSLRRVGGSRILLRM [NLN] | 2.35 ± 0.74 | 2.05 ± 0.39 |  | 
8 | ICIMDAENITTVSVIKDHHTRSIT [WDR88] | 2.34 ± 0.31 | 2.18 ± 0.24 |  | 
9 | NEWRMVASMSKRRCGVGVSVLDDL [KLHL20] | 2.27 ± 0.52 | 2.25 ± 0.34 |  | 
10 | AAQNCRKRKLDTILNLERDVEDLQ [NFE2L1] | 4.09 ± 0.44 | 4.62 ± 0.27 |  | 
11 | GEVLKSSTFSSGPSDKMKWCLRVN [SPOPL] | 2.46 ± 0.26 | 2.43 ± 0.23 |  | 
12 | TRRSCIDESQISAEEAEDHGRIPD [FAM189A2] | 5.5 ± 0.33 | 5.49 ± 0.15 |  | 
13 | DVQNKLKESAQCVGDEFLNCKLAT [SNX8] | 3.43 ± 0.21 | 3.42 ± 0.24 |  | 
14 | VDGRATQKLIVNLKPEKSYSFVLT [PTPRD] | 2.4 ± 0.51 | 2.37 ± 0.66 |  | 
15 | ADPLRVSSRDKLTEMAASSQGNFE [FUNDC2] | 4.96 ± 0.2 | 5.18 ± 0.26 |  | 
16 | KNTSEQDQPMGGWEMIRKIGDTSV [LMNB1] | 4.27 ± 0.18 | 4.43 ± 0.22 |  | 
17 | ARLLQEGGGGVAAVVVLDQGSRHW [DUSP5] | 2.64 ± 0.97 | 2.44 ± 0.75 |  | 
18 | LPFGPFNGTAWTYHSQDELGGFSH [PKD2L1] | 2.41 ± 0.13 | 2.58 ± 0.18 |  | 
19 | GRHLELANQKLSEKLAAGALPHIN [CCDC3] | 3.46 ± 0.42 | 3.79 ± 0.36 |  | 
20 | SPAKASQASKLRASKEEKEDWLSH [FBF1] | 4.92 ± 0.37 | 4.92 ± 0.3 |  | 
21 | PLLKDEGFAVKALWGRTQEEAEEL [GFOD1] | 5 ± 0.62 | 4.915 ± 0.038 |  | 
22 | RKPGMSSTARRSRAASSQRAEEED [CHMP4C] | 5.38 ± 0.17 | 5.41 ± 0.25 |  | 

Row | Sequence | protein stability index [1] | protein stability index [2] | protein stability index [3] | protein stability index [4]
23 | IERANNVKYGLAATVWSSNVGRVH [ALDH8A1] | 2.66 ± 0.29 | 2.8 ± 0.25 |  | 
24 | SCRELLRIADKFTQHNFQEVMESE [KLHL20] | 2.17 ± 0.14 | 2.19 ± 0.06 |  | 
25 | LRVGIPENAPIGTLLLRLNATDPD [PCDHGC5] | 2.92 ± 0.18 | 3.22 ± 0.32 |  | 
26 | AEHEITELTATFTKFDRDGNRILD [PKD2L1] | 4.76 ± 0.24 | 4.95 ± 0.19 |  | 
27 | DITRYYLCLQLRDDIVSGRLPCSF [EPB41L3] | 2.97 ± 0.57 | 2.63 ± 0.5 |  | 
28 | AMVWALDLDDFAGFSCNQGRYPLI [CHIT1] | 2.5 ± 0.56 | 2.65 ± 0.63 |  | 
29 | KKYVKGDVSLCRWHPKPYCQALPY [FBXO34] | 2.31 ± 0.45 | 2.05 ± 0.28 |  | 
30 | KDRECQSQSLALKEQNNLKQLEFG [ZNF8] | 4.56 ± 0.3 | 4.78 ± 0.63 |  | 
31 | IGFGVYFEWTDSPNTAVSVHVSES [ACBD3] | 2.64 ± 0.9 | 2.95 ± 0.6 |  | 
32 | AEVRHEIQDGTIHLYIYSIHSIPK [KMT2E] | 2.1 ± 0.76 | 1.51 ± 0.14 |  | 
33 | GGYGGGVSCGFGGGAGSGFGGGYG [KRT13] | 2.23 ± 0.19 | 2.38 ± 0.28 |  | 
34 | ECKKLFQVPEEMSRCRNSYTEQEL [DLC1] | 3.76 ± 0.092 | 4 ± 0.22 |  | 
35 | MEDEMPKTLYVGNLSRDVTEALIL [TIA1] | 2.41 ± 0.36 | 2.63 ± 0.28 |  | 
36 | GPHEAFNKLWELCCQWLKPKMRSK [ZNF449] | 2.67 ± 0.88 | 2.99 ± 0.71 |  | 
37 | GTELIQTPLASSTDHQTPPTSPVQ [HDAC6] | 5.11 ± 0.33 | 5.25 ± 0.29 |  | 
38 | VAIAQKFAALRASLVAPLLLELAG [MYORG] | 2.9 ± 0.76 | 2.68 ± 1.1 |  | 
39 | AKKGRRNQSVEPKKEEPEPETEAV [ZMYND11] | 5.53 ± 0.28 | 5.66 ± 0.21 |  | 
40 | HYGGVVSLIPLILDLMKEWIAHSE [SPACA9] | 3.02 ± 0.46 | 2.23 ± 0.46 |  | 
41 | LVVASGVIYCLGGYDGLNILNSVE [KLHL12] | 3.28 ± 0.25 | 3.03 ± 0.16 |  | 
42 | VTLQCLAARALDKNKIPYKGFIPE [FEM1A] | 2.69 ± 0.27 | 2.67 ± 0.28 |  | 
43 | AGGAGGGVTEEQEGFADGFVKALD [JUNB] | 5.32 ± 0.17 | 5.35 ± 0.085 |  | 
44 | RWMGLACFRSLAASSPSIRQKKLM [CCDC70] | 2.29 ± 0.61 | 2.29 ± 0.4 |  | 

Row | Sequence | protein stability index [1] | protein stability index [2] | protein stability index [3] | protein stability index [4]
45 | MITVQLPEVPANENIKGYYIIIVP [PTPRD] | 3 ± 0.77 | 2.99 ± 0.62 |  | 
46 | TVNVQRTGQPLPQSIQQAMRYLRN [DLC1] | 3.17 ± 0.18 | 3.33 ± 0.23 |  | 
47 | KWLDMLNNWDKWMAKKHKKIRLRC [TBC1D10A] | 2.62 ± 0.72 | 2.27 ± 0.31 |  | 
48 | APKAGLEEAPAVTAGLKIFEPPAP [TNFSF13B] | 4.6 ± 0.26 | 4.68 ± 0.086 |  | 
49 | NQVVSSTNGELNTDDPTAGRSNAP [CSNK1G3] | 5.41 ± 0.28 | 5.5 ± 0.17 |  | 
50 | GEQDCCGERVVINISGLRFETQLK [KCNA3] | 2.52 ± 0.21 | 2.57 ± 0.35 |  | 
51 | RDFAETHNCVDLMQAAEVFSQKHF [KLHL12] | 3.31 ± 0.23 | 3.21 ± 0.49 |  | 
52 | YLPRDFSTYRPLPDPSVWSRRYTE [MYORG] | 2.64 ± 0.17 | 2.82 ± 0.29 |  | 
53 | EENALWEEERAFWMENNGHVAGEQ [CCDC70] | 4.99 ± 0.22 | 5.29 ± 0.13 |  | 
54 | SQNIQEDDLQQLQLFTEYGRLAMD [ATL3] | 4.3 ± 0.27 | 4.09 ± 0.47 |  | 
55 | RQITQVYGFYDECLRKYGNANVWK [PPP2CA] | 2.19 ± 0.33 | 2.33 ± 0.26 |  | 
56 | IGRGTKVILHLKEDQTEYLEERRV [HSP90AB1] | 3.34 ± 0.16 | 3.57 ± 0.29 |  | 
57 | KKQLADETLLKVDLENRCQSLTED [LMNB1] | 5.13 ± 0.23 | 5.31 ± 0.076 |  | 
58 | MVMIRGNSGLKPKDNEFTSKPWHW [POMT2] | 2.38 ± 0.26 | 2.21 ± 0.25 |  | 
59 | SVNEHTEEGESLLCLACSAGYYEL [ANKRD17] | 2.64 ± 0.38 | 2.93 ± 0.29 |  | 
60 | VVKEEISDDNAKLPCFNGRVVSWL [DVL3] | 2.94 ± 0.29 | 3.19 ± 0.19 |  | 
61 | VNDKRRKKSGEKEQHISKCKKAFR [KMT2E] | 3.76 ± 0.14 | 3.86 ± 0.27 |  | 
62 | ERAIETLIKNFHQYSVEGGKETLT [S100A14] | 3.53 ± 0.23 | 3.41 ± 0.22 |  | 
63 | EELTYIIKQDINSLNKQIAQLQDF [STX5] | 2.61 ± 0.21 | 2.85 ± 0.26 |  | 
64 | TLCAVLERDTLSIRESRLFGAVVR [BTBD1] | 2.4 ± 0.38 | 2.22 ± 0.56 |  | 
65 | DLVQWTRHMEAVKAQLLEQAQGQL [SOAT2] | 2.62 ± 0.56 | 2.69 ± 0.24 |  | 
66 | QNPEAIAAAAMYTFLPDNFSPAKP [MYORG] | 3.79 ± 0.15 | 3.86 ± 0.2 |  | 

Row | Sequence | protein stability index [1] | protein stability index [2] | protein stability index [3] | protein stability index [4]
67 | AFERQQVENRVVEEAKGLLDKVKD [ZBED1] | 4.97 ± 0.38 | 5.61 ± 0.19 |  | 
68 | LRREPSERLTAPEILLHPWFESVL [TRIB1] | 2.51 ± 0.25 | 2.74 ± 0.52 |  | 
69 | EDTQRHETYHQQGQCQVLVQRSPW [TCAP] | 4.03 ± 0.29 | 3.79 ± 0.17 |  | 
70 | LSPTQRQKNFELAFTMAENLANCE [SMTNL2] | 3.39 ± 0.19 | 3.67 ± 0.52 |  | 
71 | HTSTARLLLHRGAGKEAMTSDGYT [RIPK4] | 3.61 ± 0.22 | 3.75 ± 0.29 |  | 
72 | GDLQETTVVTGLGPDTQDLEGQSP [PBXIP1] | 5.62 ± 0.23 | 5.58 ± 0.2 |  | 
73 | ALLIVDSATALYRTDYSGRGELSA [RAD51] | 2.17 ± 0.33 | 2.27 ± 0.42 |  | 
74 | PKQLYFSARQGELQKVLLMLVDGI [EHMT1] | 2.66 ± 0.48 | 2.35 ± 0.58 |  | 
75 | FYKDWWNSTSYSNYYRTWNVVVHD [SOAT1] | 2.46 ± 0.39 | 2.15 ± 0.31 |  | 
76 | GGLLSYDEGGITKQPPVTQSKTAS [FBF1] | 4.96 ± 0.18 | 4.89 ± 0.33 |  | 
77 | VEEVVYDLSIRGFNKETAAACVEK [TSN] | 4.63 ± 0.22 | 4.51 ± 0.56 |  | 
78 | VLCLLAADEDDDRDVALQIHFTLI [GADD45A] | 3.49 ± 2.2 | 2.15 ± 1 |  | 
79 | EDEGFLREEERPLPRRDFQRQVWL [KCNA3] | 3.97 ± 0.1 | 4 ± 0.4 |  | 
80 | MISTYEFGKSFFQRLNQDRLLGG [SLC25A39] |  |  | 3.21 ± 0.83 | 2.44 ± 0.27
81 | LDLAGNNIPGDVLRAVEQAMGHSQ [LRRC45] | 4.45 ± 0.39 | 4.44 ± 0.28 |  | 
82 | TYWQCGQYLGVGPGAHGRFMPQGA [RSAD1] | 2.27 ± 0.26 | 2.65 ± 0.49 |  | 
83 | GLRAATMSAVEAATCRAKELSRK [PYCR3] |  |  | 5.1 ± 0.95 | 4.97 ± 0.18
84 | SPVTRTRSLSACNKRVGMYLEGFD [DLC1] | 3 ± 0.3 | 3.19 ± 0.3 |  | 
85 | DYSHRQKEQDVEKELRDGGEQDTW [NFE2L1] | 5.63 ± 0.5 | 5.46 ± 0.44 |  | 
86 | DRFYVINYLVRLSFHNLKFDCSTA [ZNF277] | 2.98 ± 0.88 | 2.54 ± 0.43 |  | 
87 | EVYQEVQAMFDTLGIPKSTTSDIP [FAM98B] | 3.09 ± 0.31 | 3.5 ± 0.49 |  | 
88 | RVILEIDNARLAVDDFRLKYENEL [KRT13] | 2.4 ± 0.25 | 2.66 ± 0.45 |  | 
